Publication PMC8010706
Changes are numbered by the printed parent chain. Names may count otherwise.

B1: His-tagged ySgt2-C (ySgt2 222-346), Q12118 M315D (protein)
chain: SLNLEKTVPEQSRDADVDASQGASAGGLPDLGSLLGGGLGGLMNNPQLMQAAQKMMSNPGAMQNIQKMMQDPSIRQMAEGFASGGGTPNLSDLDNNPALRNMAGNLFGGAGAQSTDETPDNENKQ
B2: His-tagged ySgt2-C (ySgt2 222-346), Q12118 I295D (protein)
chain: B1 chain with I74D, D94M
B3: His-tagged ySgt2-C (ySgt2 222-346), Q12118 M323D (protein)
chain: B1 chain with D94M, M102D
B4: His-tagged ySgt2-C (ySgt2 222-346), Q12118 L327D (protein)
chain: B1 chain with D94M, L106D
B5: His-tagged ySgt2-C (ySgt2 222-346), Q12118 M277D (protein)
chain: B1 chain with M56D, D94M
B6: His-tagged ySgt2-C (ySgt2 222-346), Q12118 I286D (protein)
chain: B1 chain with I65D, D94M
B7: His-tagged ySgt2-C (ySgt2 222-346), Q12118 M290D (protein)
chain: B1 chain with M69D, D94M
B8: His-tagged ySgt2-C (ySgt2 222-346), Q12118 L320D (protein)
chain: B1 chain with D94M, L99D
B9: His-tagged hSgt2-C (hSgt2 213-313), O43765 L224D; F280D (protein)
chain: TGGVGSFDIAGDLNNPGFMSMASNLMNNPQIQQLMSGMISGGNNPLGTPGTSPSQNDLASLIQAGQQDAQQMQQQNPELIEQLRSQIRSRTPSASNDDQQE
B10: His-tagged hSgt2-C (hSgt2 213-313), O43765 L295D (protein)
chain: B9 chain with D12L, D68F, L83D
B11: His-tagged hSgt2-C (hSgt2 213-313), O43765 M233D; L295D (protein)
chain: B9 chain with D12L, M21D, D68F, L83D
B12: His-tagged hSgt2-C (hSgt2 213-313), O43765 L224D (protein)
chain: B9 chain with D68F
B13: His-tagged hSgt2-C (hSgt2 213-313), O43765 M233D; F280D (protein)
chain: B9 chain with D12L, M21D
B14: His-tagged hSgt2-C (hSgt2 213-313), O43765 F280D (protein)
chain: B9 chain with D12L
B15: His-tagged hSgt2-C (hSgt2 213-313), O43765 L224D; L295D (protein)
chain: B9 chain with D68F, L83D
B16: His-tagged hSgt2-C (hSgt2 213-313), O43765 M247D (protein)
chain: B9 chain with D12L, M35D, D68F
B17: MBP-Sbh1 full length (natural protein)
chain: MSSPTPPGGQRTLQKRKQGSSQKVAASAPKKNTNSNNSILKIYSDEATGLRVDPLVVLFLAVGFIFSVVALHVISKVAGKLF

Each molecule was assayed against MBP-Sbh1 full length (UniProt P52870) (assay: pull-down (Ni-NTA capture after coexpression, Coomassie quantification)). Conditions: experiments performed 3 to 4 times; parent: 1.

“His-tagged ySgt2-C (ySgt2 222-346) (from UniProt Q12118) H2A” was tested. Which ratio to parent did it give?
Its ratio to parent is 0.1.

Which ratio to parent does the source give for “His-tagged ySgt2-C (ySgt2 222-346) (from UniProt Q12118) H1A” here?
Its ratio to parent is 0.03.

For “His-tagged hSgt2-C (hSgt2 213-313) (from UniProt O43765) H4A”, which ratio to parent is on record?
The ratio to parent was 0.55.

For “His-tagged hSgt2-C (hSgt2 213-313) (from UniProt O43765) H5A”, which ratio to parent is on record?
The ratio to parent was 0.67.

With “His-tagged hSgt2-C (hSgt2 213-313) (from UniProt O43765) H0A” as the molecule, how does the ratio to parent read?
Its ratio to parent is 0.63.

How did the ratio to parent turn out when “His-tagged hSgt2-C (hSgt2 213-313) (from UniProt O43765) H1A” was run?
The ratio to parent was 0.21.

Which ratio to parent does the source give for “His-tagged ySgt2-C (ySgt2 222-346) (from UniProt Q12118) H3A” here?
Its ratio to parent is 0.19.

“His-tagged ySgt2-C (ySgt2 222-346) (from UniProt Q12118) H4A” was tested. Which ratio to parent did it give?
Its ratio to parent is 0.27.

“His-tagged hSgt2-C (hSgt2 213-313) (from UniProt O43765) H2/3A” was tested. Which ratio to parent did it give?
Its ratio to parent is 0.27.

Which ratio to parent does the source give for “His-tagged ySgt2-C (ySgt2 222-346) (from UniProt Q12118) H5A” here?
The ratio to parent was 0.32.

Target: T1, MBP-Sbh1 full length, P52870
T1 chain: B17 chain
Assay: as above
Conditions: chain shown with the change; capture assay repeated three times; parent: 1

Which ratio to parent does the source give for B1 here?
The ratio to parent was 0.34.

B2 was tested. Which ratio to parent did it give?
Its ratio to parent is 0.21.

B3 was tested. Which ratio to parent did it give?
Its ratio to parent is 0.29.

How did the ratio to parent turn out when B4 was run?
Its ratio to parent is 0.4.

For B5, which ratio to parent is on record?
The ratio to parent was 0.14.

How did the ratio to parent turn out when B6 was run?
The ratio to parent was 0.13.

How did the ratio to parent turn out when B7 was run?
Its ratio to parent is 0.18.

For B8, which ratio to parent is on record?
The ratio to parent was 0.23.

Which ratio to parent does the source give for B9 here?
Its ratio to parent is 0.21.

For B10, which ratio to parent is on record?
Its ratio to parent is 0.86.

B11 was tested. Which ratio to parent did it give?
Its ratio to parent is 0.44.

How did the ratio to parent turn out when B12 was run?
Its ratio to parent is 0.71.

Which ratio to parent does the source give for B13 here?
Its ratio to parent is 0.59.

B14 was tested. Which ratio to parent did it give?
The ratio to parent was 0.69.

How did the ratio to parent turn out when B15 was run?
Its ratio to parent is 0.16.

With B16 as the molecule, how does the ratio to parent read?
The ratio to parent was 0.68.

Each molecule was assayed against hSgt2 M233D (Homo sapiens) (UniProt O43765) (assay: pull-down; capture assay: His-tagged Sgt2 construct coexpressed with MBP-Sbh1 in E. coli; lysate incubated in batch with Ni-NTA resin at 4 °C for 1 h, washed with 20 mM Tris, 150 mM NaCl, 25 mM imidazole, 10 mM BME, pH 7.5, eluted with 300 mM imidazole; Coomassie-stained gel, MBP-Sbh1/Sgt2 ratio normalised to wild type). Conditions: not given.

How did the percent reduction of binding relative to wild type turn out when B17 was run?
The percent reduction of binding relative to wild type was 36%.
